According to the supplement of paper PMC12764529:
± gives the half width of the 95% confidence interval.

How the values were obtained:
[1] = folding stability dG unfold from trypsin proteolysis; higher = more stable
In short: (§1)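 Sequencing followed digestion of designed mini-proteins with trypsin and chymotrypsin, each at 11 concentrations in threefold dilutions together with a no-protease condition. The mini-proteins were under 80 residues, had no cysteine, sat in a PA-tagged cDNA display construct, and were kept only if AlphaFold2 dimer inter-PAE was above 15. From the counts, Bayesian fitting gave K50, and unfolding free energy was derived against a sequence-predicted unfolded-state K50 and a shared folded-state K50, per protease or combined.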

[2] = folding stability dG unfold (combined trypsin and chymotrypsin); higher = more stable
In short: as §1

[3] = folding stability dG unfold from chymotrypsin proteolysis; higher = more stable
In short: as §1

Sequence | folding stability dG unfold [1] [kcal/mol] | folding stability dG unfold [2] [kcal/mol] | folding stability dG unfold [3] [kcal/mol]
SAGGPDWKTVEVEIQVKDPEDRPEAIEEAEEWAQELAENNPGYKIKGVDVEIWPHNGWYQIRIPITVESAGG [r13_305_TrROS] | 0.733 ± 0.1 | 0.79 ± 0.19 | 1.01 ± 0.21
SAGGPDWQTIRITFWFDSPEDAEEEVRNIARTMGLPPEGIKVEITDFEPREVNGKNYYMVEAEITIPSAGGS [r16_240_TrROS] | 2.95 ± 0.044 | 3.93 ± 0.062 | 4.274 ± 0.035
SAGGPEELELTLSIDYPDLTPEQAAEEARRLLEGLGFEVKEIPVTVEPGPGKVTVRARVTVLPPEERSAGGS [r16_287_TrMRF] | 0.859 ± 0.12 | 1.06 ± 0.17 | 1.21 ± 0.05
SAGGPFDDFEPLGTIPFKVNGMEIEIQIWRMKNPGHYMVDIRNPGFGIPVMYWVPPGDIEEILDLIRSAGGS [r8_469_TrROS] | 2.22 ± 0.078 | 2.7 ± 0.14 | 3.1 ± 0.059
SAGGPFRVRISDEVIKELKKQGLKPGKKSVKITMQYPNGWVFRGTIKIPPANPKIPLKAEPVERLDDSAGGS [r16_497_TrROS] | 0.429 ± 0.074 | 0.482 ± 0.11 | 0.386 ± 0.17
SAGGPGWVTVEFWIPIEPDPNQTRDDVKEKAEEIVHEMAEYHPQFGITNVKVDVDPEEGWVKVSIVWPSAGG [r13_1011_TrROS] | 1.47 ± 0.16 | 1.49 ± 0.24 | 1.58 ± 0.15
SAGGPGYNINIDVKIYPDPNDNHFVIEVKITIMPMEPDPDDGGWKQRSRTVPQEILLPPGESAEDIFSAGGS [r8_323_TrROS] | 3.19 ± 0.17 | 2.62 ± 0.13 | 1.86 ± 0.1
SAGGPITITYDEETGVLTITITVPSLEEAEALIKALLPPGAEATRITVERNEDGSVTVTVEIRLPKGLSAGG [r13_338_TrROS_Hall] | 2.99 ± 0.08 | 2.31 ± 0.062 | 1.49 ± 0.024
SAGGPKIKIEAFPDGTVKITIELPDGVTIVIELKFDPETGTVHAKITLLPKDKPVTFEFTFKIPPDASAGGS [r16_230_TrMRF] | 3.34 ± 0.35 | 4.29 ± 0.41 | 4.34 ± 0.11
SAGGPKKRKWVTFTIDIYIPTPPGQSIEDEARKLAENLGIEITDVEVEPHPNGMVKIDVTVTIWIPYSAGGS [r8_292_TrROS] | 2.84 ± 0.062 | 3.91 ± 0.13 | 4.37 ± 0.097
SAGGPKLFVEEDPVEDGVVVVVETNADPVALLKALEKLFGRPVKDVRFERLPDGRLIAVARIPKDALSAGGS [r16_605_TrMRF] | 2.05 ± 0.043 | 2.47 ± 0.045 | 2.676 ± 0.016
SAGGPKPILILPKNGKTETIPVPESMTLEEIIEIVKKAAEKYGFEKISYDPEKKVVTVYLKGKVIVTGSAGG [r13_572_TrMRF] | 1.25 ± 0.015 | 2.27 ± 0.064 | 2.625 ± 0.017
SAGGPKTIMAMIPRDSPELRKALKWLEKAPPGEEVELKLPGKPIRITNIQPVDDWWMFSVKIPPGLKSAGGS [r16_404_TrROS] | 1.52 ± 0.16 | 0.885 ± 0.19 | 0.462 ± 0.31
SAGGPKVEIVDITVTEEEVNGKKKKTVTVKVKLENGETLTITMSEEELKKLGLSVEEIAKKLAKKLKSAGGS [r16_625_TrROS_Hall] | 1.54 ± 0.035 | 2.09 ± 0.15 | 2.38 ± 0.044
SAGGPKVIVTDPNGVKHEFENLSIPELLSSLPKNGTPILKIEIPLFNPELGGEEPLELEFIFPPELFSAGGS [r16_806_TrMRF] | 0.321 ± 0.017 | 0.107 ± 0.083 | -0.417 ± 0.19
SAGGPKVYLTDIVTTLPDGTVVMIGEIELPDGTPLIAITTIYKDGTVKVFIYDPNGKLIAEIEIKPKPSAGG [r13_903_TrMRF] | 2.15 ± 0.085 | 2.78 ± 0.064 | 3.09 ± 0.032
SAGGPLSEEELEALRKALEAARAAGAETVTLTATLTVTRTVTLPDGSTRTETRTLTLTLTVTLPPEESAGGS [r8_203_TrROS_Hall] | 3.74 ± 0.1 | 4.45 ± 0.12 | 4.73 ± 0.079
SAGGPLVVEAKVEGDTVTIRLPNGEEFTAHPDATLFLPNGERVFFEPVSDDVVIATVVPLPEDAEFPSAGGS [r16_277_TrMRF] | 0.359 ± 0.034 | 0.212 ± 0.085 | -0.0303 ± 0.13
SAGGPMPPGQKRTVTIDLEYNPENGGYRVRAYSPGGKPIEEFPFPRDNLEEFAEEFANKGVDYVEIEPSAGG [r13_765_TrROS] | -0.217 ± 0.19 | 0.325 ± 0.16 | 0.528 ± 0.18
SAGGPNFIVKIRIPMRKYERENDPGGKPKWEPVEPQRVEITIIFKGPPEQAKQIREELENHGLEVEPISAGG [r13_452_TrROS] | 1.65 ± 0.077 | 2.05 ± 0.18 | 2.44 ± 0.098
SAGGPNIELEFETYRDPDGMLVIKFHIRIKFGNKPVYIFVEGVIPPDGEAQIEDAYIFDADNGEWIPISAGG [r13_932_TrROS] | 2.9 ± 0.25 | 4.26 ± 0.29 | 4.6 ± 0.15

Sequence | folding stability dG unfold [1] [kcal/mol] | folding stability dG unfold [2] [kcal/mol] | folding stability dG unfold [3] [kcal/mol]
SAGGPPNGMVPIKVPIKIRFPNGHEFKIDEAYVMPNGMVMIEMTHTDPDDKKEKFPFMIPPDNLEIVSAGGS [r16_498_TrROS] | 2.41 ± 0.15 | 1.86 ± 0.19 | 1.59 ± 0.096
SAGGPPNYRIKIEYYPPNGMITVELPFDSPDELLDEIRELPGLPVEPDNDGTIIIMFPNHMIKIDIWKSAGG [r13_143_TrROS] | 2.18 ± 0.067 | 2.51 ± 0.11 | 2.72 ± 0.056
SAGGPPPKWVKIDIFIFIYNPDNGRPIFIRITSIEIRLDENNELDVEIEFEVFDPNGKPVKYTMTFKSAGGS [r16_200_TrROS] | 3.81 ± 0.12 | 4.45 ± 0.24 | 4.8 ± 0.11
SAGGPSHPLGPVALTLDPAASTLTVTLGDEVLTLPVPPGVTATATSYPDSVTVTLTFPDGTVVTVTLPLSAG [r5_21_JUSTAS] | 2.18 ± 0.063 | 2.89 ± 0.056 | 3.18 ± 0.034
SAGGPTAPAGGPLLAPVPVVVPVPVTLTFPNLTPEQAEALAEYFRSLGAEVSYDSATGTLTVRDYRTSAGGS [r16_765_TrMRF] | 2.28 ± 0.061 | 3.587 ± 0.033 | 3.894 ± 0.014
SAGGPTLKVKIYLPEEGKVIEFTFEAKKDEAEKIAKELEKLFPGYKLEGVKIFETPDSIELLAVASPESAGG [r13_196_TrMRF] | 3.26 ± 0.11 | 3.52 ± 0.069 | 3.65 ± 0.075
SAGGPTVVLRVRDADGNLVTVTFDEETKRITVTVVRDGKTRTLTVDMTVDEAIARLRDLFPVEVELVPSAGG [r13_141_TrROS_Hall] | 2.42 ± 0.051 | 2.83 ± 0.041 | 3.05 ± 0.014
SAGGPVFLGFEEALEFIEKAFENGEDVVVVARLPDGGLVVLEASGPDLDLRVVAVIPLPPPEEDPEKYSAGG [r13_839_TrMRF] | 1.5 ± 0.033 | 1.03 ± 0.091 | 0.268 ± 0.14
SAGGPVIEVEKEYIPETGLVKVKVRDPSSDRELEIIAPSDLVDKIEKALENAPGTNSEAAVREALRDSAGGS [r8_484_TrMRF] | -0.935 ± 0.42 | 0.402 ± 0.15 | 0.921 ± 0.032
SAGGPVIEVESLEELKKALELLKEGKEVVIRVRVRRTETLPDGRKRVEEREVVYRATVEDGKLTIEPLSAGG [r13_835_TrROS_Hall] | 2.93 ± 0.092 | 3.56 ± 0.12 | 3.91 ± 0.13
SAGGPVLVLVEVEAGFDGRPRLRRLVLPVELRPDGTVDLDAVRRAVEELLPPDWRILRIEVVPPDAPFSAGG [r13_504_TrMRF] | 1.577 ± 0.011 | 1.58 ± 0.047 | 1.46 ± 0.045
SAGGPVVEKIRELLKELGYEVEVTDVKEDYVEIKVKLPDKEITLPDGSKIERLENGELRIWIPKEDLSAGGS [r8_297_TrROS_Hall] | 2.98 ± 0.061 | 3.25 ± 0.083 | 3.4 ± 0.088
SAGGRGEGTMNDPEGGRVYKSEYDPGDGQAEIEPKPVPPVPPIDAEELAEELEQKNGLPNDDVEDMLGSAGG [r13_824_TrROS] | -0.336 ± 0.084 | -0.309 ± 0.27 | -0.208 ± 0.44
SAGGRIKDIEPIPPNDPPGQKLTIKFPDGGPIEIPMEKEPDENGPYYYKFKLQVNNGEIEVMFRIPNSAGGS [r8_360_TrROS] | 3.73 ± 0.25 | 5.18 ± 0.32 | 5.47 ± 0.16
SAGGRKAKVTVTLPDGTVVELELEFKTEEEFEKAVKEKLEELFGKSIEEVPFVEKKVTVYDPEKGSKSESAG [r5_482_JUSTAS] | 1.13 ± 0.13 | 2.04 ± 0.31 | 2.18 ± 0.12
SAGGRLVEAIREANKQGKPMSREEIKDKIKDAIREQNEENGGKIPEIEITDIHWNPDNGYVPIEIKVSAGGS [r16_365_TrROS] | -0.152 ± 0.2 | -0.561 ± 0.25 | -0.62 ± 0.27
SAGGRRKIEFEVWIPMDKDGEITPNEIIEEAREIAEALPNFDNVEIEEISIQHHPDGWTRYNITIEVPSAGG [r13_462_TrROS] | 2.16 ± 0.16 | 2.31 ± 0.31 | 2.42 ± 0.058
SAGGRVRLEERVLPDGRRVLVVHLPDRPLEVVIPLEGLALPPDQPVLVRGEGGVRELPIGDLLPEALFSAGG [r13_97_TrMRF] | 1.06 ± 0.011 | 0.88 ± 0.036 | 0.658 ± 0.053
SAGGRYWKLTTPPDRPLRLVIEPVPLEDTPEEYGSRLYIPNTGKVYYFPLKYAQEILDLPWIERLEPVSAGG [r19_302_TrMRF] | 0.903 ± 0.096 | 0.664 ± 0.11 | 0.343 ± 0.21
SAGGSAAEPVVLVFKTPESEALITVPPAFVQRVTVDPGGTVRRITVDLPDGTRTFLITDDSIFVDDSAGGSA [r15_598_TrMRF] | 0.753 ± 0.048 | 0.709 ± 0.068 | 0.581 ± 0.12
SAGGSAAGAERVTYNYMIPNDGKWFMIRITIYRFEVKRDPEDNKYKLDLPPGDQLFINTEIMWFPNSAGGSA [r15_1040_TrROS] | 2.72 ± 0.12 | 3.73 ± 0.24 | 4.14 ± 0.076
